Bridge positions count the residues as written; N and C are the ends. Peptide text beside a SMILES is read from it.
Key:
Human VEGF165 [1] = biological target: T1, Human VEGF165 (Homo sapiens, UniProt P15692); assay: BIAcore binding analysis of VEGF-binding peptides (surface plasmon resonance); conditions: 1:1 Langmuir binding; 1000 RU VEGF, 850 RU TNFα
T1 construct: purchased Biosource
T1 sequence (P15692 27-191 isoform P15692-4): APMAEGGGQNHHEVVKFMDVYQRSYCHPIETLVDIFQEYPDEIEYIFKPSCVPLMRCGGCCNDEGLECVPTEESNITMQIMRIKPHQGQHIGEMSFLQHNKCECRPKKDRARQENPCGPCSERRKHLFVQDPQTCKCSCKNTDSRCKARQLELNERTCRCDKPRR
Procedure: FIG. 3 provides results of a BIACORE binding analysis of VEGF binding peptides. Binding curves were obtained as described in the Examples. Data were fit to a two state reaction model with conformation change: Analyte (A) binds to ligand (B) to form complex AB.
In this Example, experiments conducted to assess the affinities of the peptides for VEGF are described. Affinities of the peptides for VEGF were measured using a BIAcore™-3000 surface plasmon resonance system (Biacore). A CM5 sensor chip was conditioned with 50 mM NaOH, 0.1% HCl, 0.1% SDS, and 0.08% H3PO4, and activated for covalent coupling of VEGF using N-ethyl-N′-(3-dimethylaminopropyl)-carbodiimide hydrochloride (EDC) and N-hydroxysuccinimide (NHS) according to the supplier's instructions (Biacore). Human VEGF165 (Biosource) was diluted to 5 μg/ml in 20 mM sodium acetate, pH 4.8 and injected at a flow rate of 2 μl/min to achieve approximately 1000 to 6000 response units (RU) of coupled protein. TNF-alpha (human TNF-alpha, Biosource, Int., Camarillo, Calif.) was similarly coupled to the CM5 sensor chip to approximately 850 to 3500 RU in the reference lane. A solution of 1 M ethanolamine was injected as a blocking agent. In some experiments, an additional solution of EDC and NHS were injected to improve baseline stability and a solution of 1 M ethanolamine injected as a blocking agent. The reference lane was activated with EDC and NHS and blocked with ethanolamine.
Peptides were synthesized using standard FMOC chemistry, purified by reverse phase HPLC to >95% purity (SynPep), and stored at 10 mg/mL in DMSO. For kinetic measurements, twofold serial diluted peptides in HBS-EP buffer, 0.01 M HEPES pH 7.4, 0.15 M NaCl, 3 mM EDTA, 0.005% Surfactant P20 (Biacore), were injected at 25° C. at a flow rate of 20 μL/min. Two-fold serial diluted DMSO samples and buffer samples were also injected for background subtraction. Kinetic parameters were calculated using BIAevaluation 3.1 software.

Human VEGF165 [2] = biological target: T1, Human VEGF165; assay: BIAcore binding analysis of BBI-VEGF; conditions: refolded protein, trypsin and chymotrypsin coupled in remaining lanes
Procedure: In this Example, experiments conducted to determine the binding affinity of constructs produced as indicated in Example 9 are described. Affinities of BBI-VEGF constructs for VEGF were measured using BIAcore-3000 surface plasmon resonance (Biacore). A CM5 sensor chip was conditioned with 50 mM NaOH and activated for covalent coupling of VEGF using N-ethyl-N′-(3-dimethylaminopropyl)-carbodiimide hydrochloride (EDC) and N-hydroxysuccinimide (NHS) according to the supplier's instructions (Biacore). VEGF (human VEGF165, Biosource) was diluted to 5 μg/mL in 20 mM sodium acetate, pH 4.8, and injected at a flow rate of 2 μL/min to achieve approximately 1000 to 6000 response units (RU) of coupled protein. Trypsin and chymotrypsin were similarly coupled to the CM5 sensor chip to approximately 850 to 3500 RU in remaining lanes. A solution of 1M ethanolamine was injected as a blocking agent.

[3] = test system: skin of subjects with Fitzpatrick skin types III or IV; assay: Skin lightening study, occlusive patches on lower back, clinical tanning grade; type: in vivo, human
Procedure: In this Example, experiments conducted to assess the skin lightening capabilities of BBI-AV are described. Thirteen subjects, ages 18-65, with Fitzpatrick skin types III or IV participated in this 22-day study. The Fitzpatrick skin classification is based on the skin's unprotected response to the first 30 to 45 minutes of sun exposure following a winter season without sun exposure. The categories of skin types are:
Five test sites of uniform color were marked on the lower back of each subject. The clinical grader assessed the degree of tan at each site using a 0-10 scale (0=very slight tan and 10=very deep tanning.). Each subject was pre-treated with one concentration of Molecule A, two concentrations of Molecule B, vehicle control buffer, and an untreated site for 11 consecutive days. Approximately 150 uL of test materials (0.1% and 0.9% of BBI-AV) and vehicle control were dosed onto the lower back using occlusive patches. Occlusive patches consisted of a Webril® (non-woven cotton) pad held to the skin with a porous, hypoallergenic tape (e.g., SCANPORE® or MICROPORE®). A strip of BLENDERM® tape equal in width of the cotton pad covered the outside of the tape to provide the occlusive patch. Patches remained in place until a clinician removed them the next day. This patching procedure was repeated for 11 days.
On day 12, the clinician removed the patches that were applied the previous day and the site was gently wiped to remove residual test material. The clinical grader assessed the degree of tan at each site using a […].

[4] = test system: skin of individuals of skin type III and IV; assay: Reduction of skin pigmentation induced by UVA exposure (MPPD), clinical tanning grade; type: in vivo, human; conditions: for Day 13 Avg. Tanning Grade / Day 14 Avg. Tanning Grade / Day 15 Avg. Tanning Grade: 1.0 MPPD UVA daily on days 12-14, 0-10 scale; for Change on Day 13 (tanning grade minus day 12 grade) / Change on Day 14 (tanning grade minus day 12 grade) / Change on Day 15 (tanning grade minus day 12 grade): UVA-induced pigmentation; for Day 12 Avg. Tanning Grade: after 11 days of patches, before UVA exposure, 0-10 scale
Procedure: In this Example, experiments conducted to test the ability of BBI-AV to reduce skin pigmentation induced by UVA exposure are described. This study was conducted with 13 individuals of skin type III and IV based on The Fitzpatrick skin classification. On day one, each subject's minimal persistent pigment darkening dose (MPPD) was determined on the lower back of each individual, in an area that is equal in color to the area that received test material application. […] Subjects returned to the clinic 34 hours after the MPPD exposures were complete. The test sites were scored for pigment darkening using the following scale: • - no visible pigment darkening • ? questionable response; unclear • + slight darkening over essentially the whole irradiation field • ++ definite darkening over the whole irradiation field The site treated with the lowest dose of UVA producing a score of ‘+’ represented that subject's MPPD. On day two, sites of uniform color were marked on the lower back. The clinical grader assessed the degree of tan at each site using a 0-10 scale (0=very slight tan and 10=very deep tanning.) Then the Test material (0.1% and 0.9% of BBI-AV) and the vehicle control applied under occlusion. A volume of 150 μl was dosed onto each patch. The occlusive patches used hte these experiments were the same as described in Example 2. As described in Example 2, the patches remained in place until the next day, when a clinician removed them. This patching procedure was repeated for 11 days. On the days 12-14, the clinician removed the patches that were applied the previous day and the site was gently wiped to remove residual test material. The clinical grader assessed the degree of tan at each site using a 0-10 scale (0=no tan and 10=very deep tanning.) After grading was complete, each site was exposed to 1.0 MPPD of UVA as described for Day 1. New patches were applied after exposures were completed. On day 15, patches were removed and the degree of tan at each site was assessed using a 0-10 scale (0=no tan and 10=very deep tanning). […] In this table, the tanning grade results are shown as the results obtained for day 12 subtracted from grades of days 13, 14 and 15.

VegF = biological target: T2, VegF (Homo sapiens, UniProt P15692); assay: Electrochemiluminescence (BioVeris) competition with Anti-VegF antibody for binding to VegF; conditions: ECL labeled Anti-VegF antibody, biotinylated VegF; for competition with Anti-VegF antibody for binding to VegF: 2 h room temperature
T2 construct: purchased PeproTech
T2 sequence (P15692 27-191 isoform P15692-4): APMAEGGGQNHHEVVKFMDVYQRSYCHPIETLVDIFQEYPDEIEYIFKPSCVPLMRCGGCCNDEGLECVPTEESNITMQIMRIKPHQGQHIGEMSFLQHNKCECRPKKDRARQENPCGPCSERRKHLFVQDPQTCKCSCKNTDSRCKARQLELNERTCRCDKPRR
Procedure: FIG. 19 provides a graph showing results from a competition analysis of 2BBlck81 versus anti-VegF antibody binding to VegF.
Briefly, after cleavage, the pH of the cleaved sample was adjusted to 5.5, the sample was then loaded onto the column (equilibrated with 25 mM MES pH 5.5). The free 2BBIck81 was washed through the column using 25 mM sodium acetate pH 5.0 while the BCE103 catalytic core remained bound to the resin. The 2BBIck81 fraction was concentrated by ultrafiltration and analyzed using an electrochemiluminescence (ECL) based binding assay (BioVeris). The Anti-VegF antibody (Santa Cruz) and VegF (PeproTech) were labeled with the electrochemiluminescent dye and biotin, respectively, as described by the manufacturer (BioVeris). All materials were in Dulbecco's PBS (Mediatech) supplemented with 0.1% TWEEN®-80. An initial dilution series of Anti-VegF antibody (125, 250 and 500 ng/ml) and VegF (100, 150, 200 and 250 ng/ml) were tested in the binding assay to determine the concentrations of each that would give a robust ECL signal.
For testing 2BBIck81 binding, 50 μL of 500 ng/ml ECL labeled Anti-VegF antibody, 50 μL of 250 ng/ml biotinylated VegF and 100 μL 2BBIck81 (series of 12.5, 15, 31.25, 62.5, 125, 250 or 500 ng/ml) were incubated at room temperature for 2 h with shaking. Then, 50 μL of 0.2 mg/ml streptavidin coated beads were added and the reaction was incubated at room temperature for 30 minutes. The ECL signal was measured using a BioVeris M8/384 Analyzer as described by the manufacturer (BioVeris).

CC[C@H](C)[C@@H]1NC(=O)[C@H](CC(=O)O)NC(=O)[C@@H](NC(=O)[C@H](CC(N)=O)NC(=O)[C@@H]2CCCN2C(=O)[C@H](CCC(=O)O)NC(=O)[C@@H](N)C(C)C)CSSC[C@@H](C(=O)N[C@@H](Cc2ccccc2)C(=O)N[C@@H](CCC(=O)O)C(=O)N[C@@H](CCCNC(=N)N)C(=O)N[C@@H](CC(C)C)C(N)=O)NC(=O)[C@H](CCC(=O)O)NC(=O)[C@H](Cc2c[nH]c3ccccc23)NC(=O)[C@H](CCC(=O)O)NC(=O)[C@H](Cc2c[nH]c3ccccc23)NC(=O)[C@H](CCSC)NC(=O)[C@H](C(C)C)NC(=O)[C@H](Cc2c[nH]cn2)NC1=O [v114, reference compound] (H-VEPNCDIHVMWEWECFERL-NH2; disulfide 5-15; N-terminus and C-terminus assumed)
Kd (Human VEGF165 [1]): 223 nM
kd1 (Human VEGF165 [1]): 0.167 s⁻¹

B1: BBI-VEGF1: BBI-VEGF fusion (SEQ ID NO:22) with only one of the binding loops replaced (protein)
chain: DDESSKPCCDQCACYNLYGWTCRCSDMRLNSCHSACKSCICALSYPAQCFCVDLTDFCEPCKPSEDDKEN
modifications: synthetic fusion peptide
specific/selective binding to VEGF (Human VEGF165 [2]): binds specifically to VEGF
specific/selective binding to VEGF (Human VEGF165 [2]; listed as BBI-VEGF): Selective binding affinity to VEGF

B2: BBI-AV: BBI sequences having anti-VEGF (AV) sequences incorporated; primary active of the personal care compositions (protein)
chain: DDESSKPCCDQCACYNLYGWTCRCSDMRLNSCHSACKSCICALSYPAQCFCVDLTDFCEPCKPSEDDKEN
change in tanning grade versus vehicle control ([3]; 0.1% and 0.9% of BBI-AV, 150 uL under occlusive patches for 11 days, graded day 12): greater change in the tanning grade
Change in Average Tanning Grade ([3]; 0.9% BBI-AV, Day 11 versus Day 1): −0.27
Average Day 1 Tanning Grade ([3]; 0.9% BBI-AV, occlusive patch on lower back, baseline before treatment, clinical grader scale): 4.96
Average Day 11 Tanning Grade ([3]; 0.9% BBI-AV, occlusive patches for 11 consecutive days, clinical grader scale): 4.69
Day 13 Avg. Tanning Grade ([4]; 0.1% BBI-AV): 5.08
Day 14 Avg. Tanning Grade ([4]; 0.1% BBI-AV): 5.13
Day 15 Avg. Tanning Grade ([4]; 0.1% BBI-AV): 5.5
Change on Day 13 (tanning grade minus day 12 grade) ([4]; 0.1% BBI-AV): 0.32
Change on Day 14 (tanning grade minus day 12 grade) ([4]; 0.1% BBI-AV): 0.37
Change on Day 15 (tanning grade minus day 12 grade) ([4]; 0.1% BBI-AV): 0.74
Day 12 Avg. Tanning Grade ([4]; 0.1% BBI-AV): 4.76
UVA induced pigmentation ([4]; 0.1% and 0.9% of BBI-AV under occlusion, 1.0 MPPD of UVA on days 12-14): UVA induced pigmentation is decreased
Day 13 Avg. Tanning Grade ([4]; 0.9% BBI-AV): 4.92
Day 14 Avg. Tanning Grade ([4]; 0.9% BBI-AV): 5.04
Day 15 Avg. Tanning Grade ([4]; 0.9% BBI-AV): 5.5
Change on Day 13 (tanning grade minus day 12 grade) ([4]; 0.9% BBI-AV): 0.23
Change on Day 14 (tanning grade minus day 12 grade) ([4]; 0.9% BBI-AV): 0.35
Change on Day 15 (tanning grade minus day 12 grade) ([4]; 0.9% BBI-AV): 0.81
Day 12 Avg. Tanning Grade ([4]; 0.9% BBI-AV): 4.69

B3: 2BBIck81: BBI with the grafted CK37281 peptide in the chymotrypsin loop (protein)
chain: DDESSKPCCDQCACTKSNPPQCRCSDMRLNSCHSACKSCACYNLYGWTCFCVDITDFCYEPCKPSEDDKEN
competition for VegF binding compared with synthesized CK37281 peptide (VegF): competed for VegF binding better than the synthesized CK37281 peptide itself
competition with Anti-VegF antibody for binding to VegF (VegF): competed with the Anti-VegF antibody for binding to VegF at micromolar concentrations

B4: 1BBIck81: BBI with the grafted CK37281 peptide in the trypsin loop (protein)
chain: DDESSKPCCDQCACYNLYGWTCRCSDMRLNSCHSACKSCICALSYPAQCFCVDITDFCYEPCKPSEDDKEN
competition with Anti-VegF antibody for binding to VegF (VegF): also competed with the Anti-VegF antibody

— US9084734B2, “Peptide personal care compositions and methods for their use” (Danisco US Inc., priority 2005, dated 2015)
